Key:
[1] = biological target: prokineticin receptor expressed endogenously on M2A7 melanoma cells (ATCC CRL-2500); experiment: cell-based or functional assay
[2] = biological target: prokineticin receptor(s) of guinea pig ileal membrane / ileal smooth muscle (guinea pig); experiment: cell-based or functional assay

| Substance | EC50, calcium mobilization in M2A7 melanoma cells (FLIPR) [1] [nM] | ED50, contraction of guinea-pig ileum longitudinal muscle [2] [nM] |
| --- | --- | --- |
| recombinant human prokineticin 1 (refolded, 6xHis-tagged, unlabeled) (from UniProt P58294 20-105) (ligand) | 12 | 0.46 |
| recombinant human prokineticin 2 (refolded, 6xHis-tagged, unlabeled) (from UniProt Q9HC23 28-129) (ligand) | 21 | 0.9 |

— EP1506971A1
